Measurements taken from patent US20250092148A1 (Kyowa Kirin, published 2025).
Positions count from the first letter of the chain named.

Experiments:
Assay in all cases: flow cytometry, Fab on HEK-293T cells expressing the mutant; labels of this column stand one row too low, mutant assigned after shifting them up
human CD131 D144A = target: T1, human CD131 D144A (human, UniProt P32927 17-897)
T1 construct: whole, on cells
T1 sequence (looked up): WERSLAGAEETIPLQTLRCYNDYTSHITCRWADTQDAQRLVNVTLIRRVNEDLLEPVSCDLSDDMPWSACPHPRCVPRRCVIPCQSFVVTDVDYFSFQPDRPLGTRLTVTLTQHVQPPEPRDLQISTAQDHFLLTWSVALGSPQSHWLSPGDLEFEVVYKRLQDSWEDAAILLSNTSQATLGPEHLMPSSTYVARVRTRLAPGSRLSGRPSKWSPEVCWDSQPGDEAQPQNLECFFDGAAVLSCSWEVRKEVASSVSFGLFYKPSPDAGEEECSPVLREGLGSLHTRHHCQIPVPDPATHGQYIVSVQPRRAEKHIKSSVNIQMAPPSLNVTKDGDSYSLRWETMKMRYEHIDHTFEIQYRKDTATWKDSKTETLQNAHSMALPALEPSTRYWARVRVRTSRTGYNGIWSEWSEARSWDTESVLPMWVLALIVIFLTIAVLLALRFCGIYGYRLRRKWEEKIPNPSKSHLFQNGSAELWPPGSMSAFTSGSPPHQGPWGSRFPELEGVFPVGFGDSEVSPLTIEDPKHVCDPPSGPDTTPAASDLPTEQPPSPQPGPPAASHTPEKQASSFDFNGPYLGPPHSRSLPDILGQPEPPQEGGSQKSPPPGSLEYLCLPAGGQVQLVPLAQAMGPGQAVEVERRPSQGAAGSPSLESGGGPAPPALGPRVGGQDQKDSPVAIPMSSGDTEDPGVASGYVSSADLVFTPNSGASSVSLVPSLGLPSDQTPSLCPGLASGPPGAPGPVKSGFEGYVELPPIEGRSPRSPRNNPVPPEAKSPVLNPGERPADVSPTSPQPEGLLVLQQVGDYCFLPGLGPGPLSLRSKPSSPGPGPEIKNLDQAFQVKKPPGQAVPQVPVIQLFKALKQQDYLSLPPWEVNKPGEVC

human CD131 H147A = target: T2, human CD131 H147A (human, UniProt P32927 17-897)
T2 construct: whole, on cells
T2 sequence (looked up): T1 sequence (looked up) with A128D, H131A

human CD131 P199A = target: T3, human CD131 P199A (human, UniProt P32927 17-897)
T3 construct: whole, on cells
T3 sequence (looked up): T1 sequence (looked up) with A128D, P183A

B1: anti-CD131 antibody 131-B2, Fab (Fab, V domains shown)
VH: QVQLVQSGAEVKEPGASVKISCKASGYTFTNDYMHWVRQAPGQGLEWMGIINPTGGGTSYAQKFRGRVTMTRDTSTSTVYMELSSLRSEDTAVFYCARERYYGSGTYFNIGLWYFDLWGRGTLVTVSS
VL: not shown
notes: Fab made from the antibody by an enzyme treatment
Binding Reactivity (% WT) (human CD131 D144A): 129 % WT
Binding Reactivity (% WT) (human CD131 H147A): 110 % WT
Binding Reactivity (% WT) (human CD131 P199A): 96.8 % WT
